# Results from the supplement of paper PMC11502859.
# Values joined by “and” are separate entries in the source; they are usually repeats but may differ in a detail not shown here. Equal entries are not always repeated.
# Tested on: HEK293T
# Test: median enrichment of reporter reads in eGFP-reduced (low/intermediate) vs eGFP-high sorted cells (eGFP-extension fusion abundance) (ratio); higher = stronger loss of eGFP-fusion protein abundance (more destabilising extension)
# 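Further: lentiviral eGFP-IRES-mCherry reporter pool sorted by FACS 96 h post-transduction, gated on mCherry-high cells, Illumina read counts normalized per million, median across four biological replicates.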
# Sequence of CASP8 (chain, as listed by the source): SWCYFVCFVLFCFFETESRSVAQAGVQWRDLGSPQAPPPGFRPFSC
row,Substance,median enrichment
1,AAA [Ala03],0.262
2,AAAA [Ala04],11.6
3,AAAAA [Ala05],4.35
4,AAAAAA [Ala06],8.25
5,AAAAAAA [Ala07],8.7
6,AAAAAAAA [Ala08],7.64
7,AAAAAAAAA [Ala09],8.59
8,AAAAAAAAAA [Ala10],8.89
9,ACKNWFSSLSHFVIHL [Degron CL1],8.24
10,ACVARPDKHLQMAAAPTWDLPRRLEQKGLSLGWCFSSRVLGCMFCTASREGVSGGHHLWDTGSKGPVHSVISFLAPASPTSPR [TMEM141],4.72
11,ADLTPAQPPPPTSHSGLVLCLLFRTPLCPPKRQKKKKKKKSKKTSEKSAAKKWMSCNFSRDGAGGVCVPTGPGGPLRGGHAAR [PITX1],10
12,AESLGSDLAAWGESLGSVLAAWGAGIAQSMNGPTPAKAESLGPVSPAAHGTGIAHGVRSVHLQGLRPWAQSALLLRVQALHMV [WNT9A],7.26
13,AEWPGTCLKCLFPISLRDQEGILGMPLTSLLSRQQKWRGSQESALNCPPGWQGSLNRYLELGSGLFPCVLTTRASCSRAGIRG [F11R],9.01
14,AGAQPLPGMRLSADGETATQSFGLCVCVCVCVCVCAHPRVPVCVRILPPGAEVPWVSPLLCNGLLTGAAAPRGLCSGGTQCRM [FGFR3],6.29
15,AGRAPPCMMGKAILPLPPPCFCCLFGEGGGEVGAAAPHPSSLLICTHWPLQTRTSGASPSPPPPCLAAGVAMMGWSSLGQGVL [SCN1B],3.87
16,APLGLEFATGRILQRQVVPGPLLHPFSRRPCQRLHPVVNLVWRQRLRGWTSIVGQGLTLQGFCSWLWTPENPLLPSPNTRFLT [FAM110A],5.18
17,APRAPRQRSRDG [Degron KLHDC3],10.8
18,APSCLSRCDRARPKPGCTLLDWASLHCLGKSAEGPKLLRGLRLVPTPKLVCSLPLPARVSGPRSIENTTTMARWKGLLVPASS [MLST8],5.58
19,ASVLLRGAVCGEGLSWQGKHLRVTLTLGPLLFLKRLLATGKKNDLATLEETSAKEDVLASLSYFCSVVDLHIVVYLVWKCVSK [POLR1D],7.42
20,CAAQTEAQAQGRNLEQGHFGHSRTGERQLYFSLGQLQRVGQALMGSDCQSDAVGPRQRKAGRRGARTFSPHCPFPFSGEHRRL [C16orf58],4.54
21,CACPHPPSSLPSC [PADI1],0.421
22,CAGAFVAISL [MSI2],8.28
23,CALYLGSGQELHLGTNSC [ABCF2],13.2

row,Substance,median enrichment
1,CAPAERRLETGATASRVQQHSRHGSGRDSAWPRGTFPGQGPGGNWHGLVPLLCCILIPQPAPLGSDLSCPRAEPGGPEGEMNP [ANKRD13B],6.25
2,CAPWWERL [HTT],1.22
3,CAQDGPRPSMANNHVRHSTSGRCSDASAGAGTPNPWLQNRDPHPDRGSSAFEGFQAGLCGTEAQRGPGTWQRWGREEIQLPSL [CCDC86],5.52
4,CAQKS [LCE6A],0.549
5,CARAALEAPARGICPYPSWKDSWMW [HCRTR1],10.8
6,CAS [FAM118B],0.212
7,CASALEETTGSPICLEFLLLLLLVCFQISLCFLLCSRKVLQNHREKVHCYKGIPTHWRL [PAQR9],25.9
8,CASP8,22.5
9,CASTRAVGDSCPHLCPRAASCLALPPHSPPGMGLLLPGSLKETAAC [FAM160B2],6.35
10,CATLSVGFFLEDSTLLPHVLSQLQS [CSTF1],8.47
11,CAWSAHRLSSAFALLRCYRTLAPDVCSFTGCLICLLHPTGPPTSSDVFLIMSAMCPILLHALPPFPTTAEWPGTCLKCLFPIS [F11R],6.63
12,CCC [Cys03],1.07
13,CCCC [Cys04],2.06
14,CCCCC [Cys05],4.25
15,CCCCCC [Cys06],12.4
16,CCCCCCC [Cys07],9.39
17,CCCCCCCC [Cys08],8.63
18,CCCCCCCCC [Cys09],7.96
19,CCCCCCCCCC [Cys10],9.58
20,CCP [RUBCNL],0.512
21,CCQDSCALRCK [MT1X],0.374
22,CCSSVKEQQTWHWNRVENPGFCTWRGKMPSCFLINPNFIYSSGTLWG [OPALIN],5.49
23,CCTKDLLF [GNA13],1.47

row,Substance,median enrichment
1,CDAQTASSATKRPENSRFTTFLSHVEAFPFNRGPSSEPRPISAIFFS [LMBR1],12
2,CDARQFLDLGGLKRPPSCLLSFSVSSFLLVFFILFSFHQPSCILALQRDRDRSSAQGFSLPLFIMGGGYHPPSQSCEESGTSF [NOTCH3],9.5
3,CDPCKWDSPPVHEAWLLQYLLVEELYSKMKRKNKQTNKKKHKKRKNTFLYLTMFFEYVFFL [RBFOX2],0.264
4,CDPPRPPEWPPPHHSTMGLDARVIVVQNRRENRPATHKGQG [TMEM151A],4.51
5,CDQLSCTNFEV [IFNGR1],0.207
6,CEA [NPSR1],10.3
7,CEGQTPEEPLQ [CXCL12],0.136
8,CEGYYPFYYGTMPCVKNNHPLAYSH [DPY19L2],8.92
9,CELLPCPSFPPCTT [FEZF2],0.681
10,CEQ [PRF1],12.2
11,CEQQMELWERGEQWGYRESSSALPLGQPHLPAVSPGHFSTSQVEVLQGPAATCIRRTSFSA [SPATA19],2.8
12,CERGLSSSLPAPSSPRPSSLCAW [HOXC10],2.77
13,CESVHQTKCGKNTKKT [GYPA],0.413
14,CETHNFISHSDHRLLNIADRNRSLQGV [TAS2R13],2.12
15,CFSRGQGGEGASGGVGAGGTVPREPGGSHTRTAPVSSGHCNPVGLFLQHSRSLPSIATLQTPG [SFRP1],4.21
16,CFSVNLSLLVERSGACPSSQTSDL [LRRC46],5.72
17,CFWNRVKLSQRRRKSPGICTS [PPP1R14C],13.7
18,CGA [FOSL1],0.817
19,CGAARRSR [METAP1D],1.33
20,CGACYGLNCAPK [ZNF81],1.07
21,CGAEHHPSH [PPM1J],0.355
22,CGALRPS [PNKD],0.539
23,CGCAPAGSSKDRPARSPSNPTFFWKGGVLQGQAGASSRLLGANPSMYIAFLSCLRAADSQRCARGERCAVGSRA [TNFRSF1A],13.5

row,Substance,median enrichment
1,CGCQLGRKRETRP [CCND2],0.808
2,CGEPLAWPTNLGFTIQTADWMKLCTFLSLQLPYVESVIFICTFFAT [TAF7L],10.8
3,CGGLPRRAKMAEMILKITEEREDQPEFPLDICVFLFFYFVLFFLLLLLP [SOX9],9.11
4,CGGLVSELGLCRESLFCVSHPLPDPSLCLYSLNSVEFN [MCM3],13.4
5,CGHLSGPGALMEAIGTPELPSHS [ODF2],0.872
6,CGIII [SRGAP2],1.59
7,CGILGDSPREELGC [CEP85],0.759
8,CGILRWLACWAWGLLTDSMEQGWAVCAHAQHALRGGGGGRGFLMSVQELKVSGVLPRICPTPHDKTELCNKQYQFILAVGFCF [WDR6],9.47
9,CGIQRERGSGRGGPEWGRLEGYRPAWMT [SNCG],3.44
10,CGLGRFS [IMMT],0.695
11,CGLGWAGARRAAGWPLGGQDGTVGTEVGGRGPSGLN [TNFRSF8],5.21
12,CGLLPLGPLTLSGWWTTKYNPVYNLKIYFTFVLLYLFIKG [SMAD4],2.65
13,CGLPSGGGAMWLGS [SMYD1],0.906
14,CGPDCSLHSAHSICSHPPSLTQPPLSGILPQMRSERQ [ABHD6],0.625
15,CGPEASWVSLGPQKLIKE [PCP2],0.292
16,CGPGGSGRGWPHPHDHCPGGGGLLLLSF [BIK],10.6
17,CGRCTRQEEGDWGPWPGTVLLRGRRRLQQSHGSPRGEGCLSRFLRPRRSDFWARGHARAVQSWPGPPVGLLCSLPSLPPDAGP [FRMD8],5.53
18,CGRPELSRPPPALLGAGVLDPWHLPGPLT [LLGL1],2.46
19,CGRTSALSDRTLRAMLPCHP [MRGPRX3],6.32
20,CGSCGCPCCVALYDCC [NDUFB10],4.77
21,CGSLRTTASLLLTSVATEAERQSDTSTGAPGEMGPA [PEX26],0.412
22,CGSRPGRPFARRRGMGERT [ARHGEF1],7.51
23,CGVSPGLMVCLL [APOBEC3F],12.2

row,Substance,median enrichment
1,CGWNQGQPALRASVLLRGAVCGEGLSWQGKHLRVTLTLGPLLFLKRLLATGKKNDLATLEETSAKEDVLASLSYFCSVVDLHI [POLR1D],8.09
2,CGWPRAVRTMKPGQRPGASPAALPTRHPPASPLGAGAHPQHPHLLINISTPGCST [COPE],5.98
3,CHLRNI [MLLT10],1.38
4,CHRGKRRKSC [CLDN1],0.437
5,CIFFYQEG [PTEN],6.73 and 8.49
6,CITKCLYCLK [EFCAB1],7.35
7,CIYTAKKNYECMEFFKKKYNALLQRTLGKKPYVKVMTVK [ZNF140],22.2
8,CKKKKKKALAFSCLFC [PCDH17],46.4
9,CLERW [LCOR],1.17
10,CLFCPHIFCFLGRMAEAWWLPPRSGTD [NR1H3],12.1
11,CLGKAGHKNLHEQYFFLNRMFYYSSQVLECLHTII [FAM24A],4.34
12,CLGPGRATGSSQAAARMLISKRCWSLPS [ZBTB39],30.1
13,CLGVKAFHGHPCTGYLLVMLQNVSPTLCPSLALLPQSP [TEX35],11.2
14,CLHW [RIMKLB],3.73
15,CLL [ACSBG2],7.26
16,CLQGSKLQR [OR7A5],3.17
17,CLSGRANPENEDWKKEKKKNTSKVSSEIVLHLLYSLEDFHYVLTTLKCVNS [FOXP1],9.44
18,CLSLPSSWDYSHTPPHLDNFVFLVETGFHYVGQAGLKLLSSGDPSASASQNAGITSVSHYTWFFFPLFANSHGVFWHHFQHYF [RBP1],8.27
19,CLSTVLFS [SUDS3],5.55
20,CMNEWVCWVGEGPGEGSGTEGMPGSLLPTASTDQQGLGQGGHPGGRGRLPPCLPAGGPRRRAGRVHVCGCPGDPGCLPCLPRP [TMEM91],4.17
21,CNDKSRSKEIVGPKGKEGKSAPRLGPGTHTPPDHLGNSRALRSRMLTKSNIQSLVNQDAVSPSVWQSVALAAGKLKADFHSYV [RNF150],4.3
22,CNHLTRTIGAPVASAHCLSLEKWRNKCYIYLCV [FAM149A],6.79
